Assays:
[1] = set-up: species or system mice; details: mouse, in vivo, iv
[2] = General pharmacological test, effects on the respiratory and circulatory organs; format: in vivo; details: Beagle dog
[3] = test system: bovine aorta endothelial (BAE) cells; experiment: Test for inhibitory activity to growth of vascular endothelial cells, bovine aorta endothelial cells; format: cell-based; set-up: dose or concentration left out as unconfirmed; details: cell count after 72 hours, plasminogen fragments
Experimental: The activity of the plasminogen fragments was also estimated as described by O'Reilly et al. using bovine aorta endothelial (BAE) cells purchased from Sanko Jun-yaku K.K. BAE cells were cultured for maintenance on a 24-well plate (manufactured by Iwaki Glass K.K.) coated with gelatin in a DMEM basal medium containing 10% fetal calf serum (FCS), 3 ng/ml basic FGF (bFGF), 1% glutamine, 1% penicillin and 1% streptomycin at 5% CO2. BAE cells were plated on a 24-well gelatin-coated plate at 12,500 cells/well and cultured on the basal medium deprived of bFGF for 24 hours. […] contained 5% FCS but was deprived of bFGF and the plasminogen fragments were reacted with the cells at 37° C. for 20 minutes. A physiological saline was used as a negative control whereas angiostatin (Angiostatin, manufactured by Technoclone) was used as a positive control. After reaction, the basal medium containing 5% FCS and 2 ng/ml bFGF was added and the cells were cultured at 37° C. for additional 72 hours. The cells were peeled off the well with trypsin/EDTA solution and counted with Coulter counter (manufactured by Coulter).

[4] = test system: Lewis lung cancer cells (LL/2); experiment: Test for inhibitory activity to growth of metastasized cancerous focus (weight of the lung); format: in vivo, C57B1 mice; details: n=6, control 0.44±0.28
Experimental: The protein fragments prepared as described above were dissolved in a physiological saline and used as a sample for animal tests. As a system for estimating an inhibitory effect to growth of metastasized cancerous focus, cancer capable of metastasis and growth was transplanted to mice where distally metastasized cancerous focus was observed. Lung cancer cells (LL/2; Dainippon Seiyaku K.K.) were subcutaneously transplanted to mice at the back. The animals were bred until a primary cancerous focus grows up to a predetermined size and the primary focus was then removed surgically. […] As a control, mice were administered with a physiological saline alone as used for dissolving the lyophilized sample (test for inhibitory activity to growth of metastasized cancerous focus).
After completion of each test, mice were dissected. The number of nodes on the lung surface, in case of test for inhibitory activity to metastasis and growth of cancer, or a weight of the lung, for test for inhibitory activity to growth of metastasized cancerous focus, was measured respectively and compared with control groups (Mann Whetney U test). […] In test for inhibitory activity to growth of metastasized cancerous focus, the lung was measured 0.44±0.28 g (n=6) for the control group while it was measured 0.23±0.08 g (n=6) for the group administered with the plasminogen fragment. […]

Lung cancer cells (LL/2) = experiment: Test for inhibitory activity to metastasis and growth of cancer (number of nodes on the lung surface); format: in vivo, mice
Experimental: The protein fragments prepared as described above were dissolved in a physiological saline and used as a sample for animal tests. As a system for estimating an inhibitory effect to growth of metastasized cancerous focus, cancer capable of metastasis and growth was transplanted to mice where distally metastasized cancerous focus was observed. Lung cancer cells (LL/2; Dainippon Seiyaku K.K.) were subcutaneously transplanted to mice at the back. The animals were bred until a primary cancerous focus grows up to a predetermined size and the primary focus was then removed surgically. The sample was administered to mice intraperitoneally at 1 mg/mouse/day for 10 days. […]
After completion of each test, mice were dissected. The number of nodes on the lung surface, in case of test for inhibitory activity to metastasis and growth of cancer, or a weight of the lung, for test for inhibitory activity to growth of metastasized cancerous focus, was measured respectively and compared with control groups (Mann Whetney U test). […] In test for inhibitory activity to growth of metastasized cancerous focus, the lung was measured 0.44±0.28 g (n=6) for the control group while it was measured 0.23±0.08 g (n=6) for the group administered with the plasminogen fragment.

B1: plasminogen fragments: plasminogen fragments comprising Kringles 1 to 4 produced by cleavage of plasminogen with PACE4 (protein)
chain: VIMAENRKSSIIIRMRDVVLFEKKVYLSECKTGNGKNYRGTMSKTKNGITCQKWSSTSPHRPRFSPATHPSEGLEENYCRNPDNDPQGPWCYTTDPEKRYDYCDILECEEECMHCSGENYDGKISKTMSGLECQAWDSQSPHAHGYIPSKFPNKNLKKNYCRNPDRELRPWCFTTDPNKRWELCDIPRCTTPPPSSGPTYQCLKGTGENYRGNVAVTVSGHTCQHWSAQTPHTHNRTPENFPCKNLDENYCRNPDGKRAPWCHTTNSQVRWEYCKIPSCDSSPVSTEQLAPTAPPELTPVVQDCYHGDGQSYRGTSSTTTTGKKCQSWSSMTPHRHQKTPENYPNAGLTMNYCRNPDADKGPWCFTTDPSVRWEYCNL
safety in single-dose toxicity test [1]: confirmed for their safety
safety in general pharmacological test (respiratory and circulatory organs) [2]: confirmed for their safety
inhibitory activity to growth of the vascular endothelial cells [3]: no inhibitory activity
inhibitory activity to growth of the vascular endothelial cells ([3]; listed as plasminogen fragment): inhibitory effects to its growth have not been obtained
weight of the lung ([4]; 25 μg/animal intraperitoneally for 10 days, dissected Day 11): 0.23 ± 0.08 g
weight of the lung ([4]; 1 mg/mouse/day intraperitoneally for 10 days): 0.23 ± 0.08 g
number of nodes representing metastasis and growth of cancer (Lung cancer cells (LL/2); 1 mg/mouse/day intraperitoneally for 10 days after removal of primary focus, n=6, control 6.3±0.2): 2.1 ± 0.8
inhibitory activity to metastasis and growth of cancer cells (Lung cancer cells (LL/2); mouse model in which Lewis lung cancer was transplanted): had an inhibitory activity to metastasis and growth of cancer cells
